Results from patent publication US20150299277A1, “AGENT FOR TREATING OR PREVENTING SYSTEMIC INFLAMMATORY RESPONSE SYNDROME” (THE UNIVERSITY OF TOKYO, priority 2012, published 2015).
“Also recorded” adds a separate entry of the source.

What was measured:
[1] = test system: each histone; test: ELISA binding assay; set-up: species or system human; conditions: immobilized recombinant histone
Experimental: Recombinant human histone (NEB) was adjusted to a concentration of 1 μg/mL in TBS, added to a 96 well ELISA plate, and immobilized at 4° C. overnight. The solution was discarded, a blocking buffer (TBS, 0.1% Triton-X100, 1% BSA) was added, and the plate was incubated at room temperature for 2 hr. The plate was washed four times with a wash buffer (TBS, 0.1% Triton-X100), recombinant PTX3 diluted to various concentrations with the blocking buffer was added to each well, and reacted at room temperature for 1 hr. After washing four times with the wash buffer, HRP-labeled antibody diluted with the blocking buffer was added, and reacted at room temperature for 1 hr. After washing four times with the wash buffer, TMB solution was added to carry out a color development reaction for 30 min, and the absorbance at 450 nm was measured. […]
The binding level between immobilized each recombinant histone and tag-free recombinant human PTX3 (rhPTX3) was measured by binding assay (ELISA). […] ELISA was performed with duplicate wells for each point, and means and standard deviations were calculated from three independent experiments.
The binding level between immobilized each recombinant histone and a tagged human PTX3 fragment was measured by binding assay (ELISA). […] ELISA was performed with duplicate wells for each point, and means and standard deviations were calculated from three independent experiments.

[2] = test system: each histone; test: BIAcore / surface plasmon resonance (SPR) measurement; type: binding, human; conditions: immobilized recombinant histone
Experimental: For the measurement, BIAcore 3000 or T200 (GE Healthcare) was used. Recombinant human histone was immobilized on CM5 sensor chip by an amine coupling kit (GE Healthcare). The reaction with recombinant PTX3 was performed using a buffer (150 mM NaCl, 20 mM HEPES, 0.005% surfactant P20 (pH 7.4)) at a flow rate of 20 μl/min. Measurement was performed using the buffer containing […]. The sensor chip was regenerated in IM sodium acetate (10 μL, pH 7.2) and 10 mM NaOH (10 μL).
The binding of immobilized each recombinant histone, and Myc- and His-tagged human PTX3 fragment was measured by surface plasmon resonance (SPR). The highest concentration of each PTX3 was as follows. full-length PTX3: 1 nM, N-terminal domain of PTX3: 5 nM, C-terminal domain of PTX3: 50 nM. The assay buffer contained 4 mM CaCl2 (Ca^2+) or 4 mM EDTA/EGTA. The affinity measured by SPR was calculated from three experiments.

[3] = test system: Calf Thymus Histones; test: Aggregation with histone, absorbance at 310 nm; type: binding; conditions: mixture with Calf Thymus Histones
Experimental: The lower left figure and the lower right figure show the measurement results of absorbance at 310 nm of a mixture of a wild-type or oligomer formation capacity-deficient mutant of PTX3 N-terminal domain having each concentration and 0.1 mg/mL Calf Thymus Histones at 1:1 vol.
The aggregation activity of PTX3 and other pentraxins to histone was evaluated. Calf Thymus Histones (50 μg/mL) were mixed with a PTX3 fragment or the other pentraxin at each concentration, and the absorbance at the wavelength of 310 nm was measured. Before mixing, samples were dialyzed against 4 mM CaCl2-containing TBS.

[4] = test system: each histone variant; test: Aggregation of each histone variant and PTX3 fragment, absorbance at 310 nm; type: binding; conditions: histone variant 50 μg/mL, PTX3 fragment 30 μg/mL
Experimental: Each histone variant (50 μg/mL) and each PTX3 fragment (30 μg/mL) were mixed, and the absorbance at the wavelength of 310 nm was measured. Before mixing, samples were dialyzed against 4 mM CaCl2-containing TBS.

[5] = test system: Calf Thymus Histones on HUVEC; test: Cytotoxic assay: suppression of histone cytotoxicity on HUVEC; type: cell-based, human; conditions: 100 μg/mL Calf Thymus Histones, 40 μg/mL protein, 1 hr, PI staining, FACS
Experimental: After culturing for 1 hr in a medium concurrently containing 100 μg/mL Calf Thymus Histones and APC (200 nM), PTX3 (40 μg/mL), CRP (40 μg/mL) or SAP (40 μg/mL), the level of toxic activity was measured by FACS.
Normal human umbilical vein endothelial cells (HUVECs) were cultured in EGM2 medium (Clonetics). The cells after culture were washed with PBS, added with Opti-MEM medium containing an product of incubation of activated protein C (APC), PTX3, C reactive protein (CRP) or Serum amyloid P component (SAP) with histone for 1 hr, and the cells were further cultured for 1 hr. Propidium iodide (PI) was added to the medium after culture at a final concentration of 10 μg/mL, and the cells were stained for 10 min. The cells were washed with PBS, detached and analyzed by flow cytometry.
The histone cytotoxicity on HUVEC was evaluated by propidium iodide (PI) staining.
Lastly, capacity of suppressing the cytotoxic activity of histone was confirmed. Since this experiment requires a certain amount of protein and an endotoxin-elimination as treatment, a protein was expressed and purified at a 500 mL culture scale, and subjected to an endotoxin-elimination treatment (FIG. 18). In the case of PTX3 N-terminal domain, about 10 mg was obtained at a 500 mL culture scale, and a loss by the endotoxin-elimination treatment was scarcely observed. […]

Molecule	bindability to each histone (binding assay) [1]	affinity for each histone by SPR [2]	aggregation with Calf Thymus Histones, absorbance at 310 nm [3]	aggregation with each histone variant, absorbance at 310 nm [4]	suppression of toxic activity of Calf Thymus Histones on HUVEC [5]
C-terminal domain of PTX3: C-terminal domain human PTX3 (179-381 amino acids), Myc- and His-tagged (protein, left off: small tags and cut ends, C-terminal domain human PTX3 (179-381 amino acids), Myc- and His-tagged) CETAILFPMRSKKIFGSVHPVRPMRLESFSACIWVKATDVLNKTILFSYGTKRNPYEIQLYLSYQSIVFVVGGEENKLVAEAMVSLGRWTHLCGTWNSEEGLTSLWVNGELAATTVEMATGHIVPEGGILQIGQEKNGCCVGGGFDETLAFSGRLTGFNIWDSVLSNEEIRETGGAESCHIRGNIVGWGVTEIQPHGGAQYVS	weak	full-length PTX3>N-terminal domain>C-terminal domain	weaker than that of the full-length PTX3 and N-terminal domain of PTX3	aggregated	–
N-terminal domain that lost the oligomer formation capacity: N-terminal domain human PTX3 wherein the 47th, 49th, 103rd cysteine residues were replaced with serine residue (protein, left off: small tags and cut ends, N-terminal domain human PTX3 wherein the 47th, 49th, 103rd cysteine residues were replaced with serine residue) ENLYFQGENSDDYDLMYVNLDNEIDNGLHPTEDPTPSDSGQEHSEWDKLFIMLENSQMRERMLLQATDDVLRGELQRLREELGRLAESLARPSAPGAPAEARLTSALDELLQATRDAGRRLARMEGAEAQRPEEAGRALAAVLEELRQTRADLHAVQGWAARSWLPAG	decrease; also recorded: scarcely bound	affinity decreased as compared to the wild-type	decrease; also recorded: decreased aggregation activity	–	–
CRP: C-reactive protein, short pentraxin used as comparator (protein, UniProt P02741 19-224, looked up) C-reactive protein: QTDMSRKAFVFPKESDTSYVSLKAPLTKPLKAFTVCLHFYTELSSTRGYSIFSYATKRQDNEILIFWSKDIGYSFTVGGSEILFEVPEVTVAPVHICTSWESASGIVEFWVDGKPRVRKSLKKGYTVGAEASIILGQEQDSFGGNFEGSQSLVGDIGNVNMWDFVLSPDEINTIYLGGPFSPNVLNWRALKYEVQGEVFTKPQLWP	–	–	no aggregation capacity; also recorded: scarcely showed an aggregation activity	–	do not have such suppressive effect
